Literature values in PMC4105053.

Assays:
[1] = target: MMOB (Methylococcus capsulatus) (UniProt P18797)
[2] = target: MMOR Fd (Methylococcus capsulatus) (UniProt P22868)
Sequence of MMOR Fd (Methylococcus capsulatus) (P22868 1-98): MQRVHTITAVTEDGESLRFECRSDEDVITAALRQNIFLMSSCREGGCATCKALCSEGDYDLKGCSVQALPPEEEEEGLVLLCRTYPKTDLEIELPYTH

Sequence of MMOH (P22869 whole entry): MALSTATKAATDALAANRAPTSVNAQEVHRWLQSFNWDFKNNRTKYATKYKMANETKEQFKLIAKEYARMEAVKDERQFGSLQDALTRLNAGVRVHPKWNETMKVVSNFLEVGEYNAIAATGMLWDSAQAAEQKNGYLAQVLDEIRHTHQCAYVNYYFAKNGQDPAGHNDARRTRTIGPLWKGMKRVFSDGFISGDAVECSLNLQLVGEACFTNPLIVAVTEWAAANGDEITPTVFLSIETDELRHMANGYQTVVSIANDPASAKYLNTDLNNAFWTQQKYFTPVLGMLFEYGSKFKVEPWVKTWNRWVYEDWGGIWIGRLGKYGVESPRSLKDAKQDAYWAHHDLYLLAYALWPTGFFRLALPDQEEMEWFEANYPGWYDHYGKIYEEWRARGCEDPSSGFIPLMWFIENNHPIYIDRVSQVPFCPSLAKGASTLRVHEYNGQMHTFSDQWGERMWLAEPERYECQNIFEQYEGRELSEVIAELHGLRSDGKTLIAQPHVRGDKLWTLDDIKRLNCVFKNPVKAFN
Sequence of MMOH (P18798 2-389, further chain): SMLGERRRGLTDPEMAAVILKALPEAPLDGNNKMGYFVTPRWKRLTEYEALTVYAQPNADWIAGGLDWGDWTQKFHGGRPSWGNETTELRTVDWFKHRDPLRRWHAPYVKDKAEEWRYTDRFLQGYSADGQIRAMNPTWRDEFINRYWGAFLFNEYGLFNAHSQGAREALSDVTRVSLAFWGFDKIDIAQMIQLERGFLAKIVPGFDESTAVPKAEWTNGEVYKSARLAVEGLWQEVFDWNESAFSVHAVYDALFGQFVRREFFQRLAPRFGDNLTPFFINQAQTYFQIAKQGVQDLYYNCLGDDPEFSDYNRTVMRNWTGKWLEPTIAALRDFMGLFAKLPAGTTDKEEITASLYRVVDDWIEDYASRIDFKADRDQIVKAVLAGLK
Sequence of MMOH (P11987 2-170, further chain): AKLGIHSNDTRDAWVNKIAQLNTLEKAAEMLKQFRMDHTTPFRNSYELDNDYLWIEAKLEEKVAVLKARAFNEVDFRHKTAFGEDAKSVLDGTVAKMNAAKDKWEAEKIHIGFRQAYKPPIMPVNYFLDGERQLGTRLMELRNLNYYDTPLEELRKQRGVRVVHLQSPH
Sequence of MMOB (Methylococcus capsulatus) (P18797 whole entry): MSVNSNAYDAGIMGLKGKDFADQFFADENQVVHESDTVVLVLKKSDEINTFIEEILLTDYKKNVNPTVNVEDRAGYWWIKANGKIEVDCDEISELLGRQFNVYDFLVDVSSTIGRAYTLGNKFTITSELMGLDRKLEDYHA

## MMOH (from UniProt P22869)
[1]
  Kd: 550 nM
[2]
  Kd: 900 nM
